In article PMC12866752, “Computational Design and Glycoengineering of Interferon‐Lambda for Nasal Prophylaxis Against Respiratory Viruses” (Advanced Science, 2025):

Target: T1, recombinant ectodomain of human IFN-λ receptor 1 (hIFN-λR1) (human, UniProt Q8IU57 21-228)
T1 construct: for the receptor neither is said; also called IFNLR1; source: recombinant; plasmids transfected into Expi293-F cells; purification of the receptor not described
T1 sequence (looked up): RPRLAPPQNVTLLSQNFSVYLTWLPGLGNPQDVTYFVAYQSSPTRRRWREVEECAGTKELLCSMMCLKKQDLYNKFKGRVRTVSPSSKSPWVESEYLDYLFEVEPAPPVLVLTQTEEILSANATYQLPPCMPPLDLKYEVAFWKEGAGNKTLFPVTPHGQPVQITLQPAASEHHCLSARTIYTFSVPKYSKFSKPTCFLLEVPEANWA
Test: SPR; Biacore T200; His-tagged hIFN-λ3-WT or hIFN-λ3-DE1 immobilised on a Series S NTA chip to about 200 RU; analyte hIFN-λR1 ectodomain at 6.25, 12.5 and 25 nM, 60 s at 10 µL/min, 120 s dissociation; 1X PBS-P+ with 50 nM EDTA; global fit to a 1:1 model
Conditions: both partners purified

binding result: binds
B1: wild-type human interferon-λ3 (hIFN-λ3-WT), His-tagged (ligand, UniProt Q8IZI9 22-196, looked up)
chain: VPVARLRGALPDARGCHIAQFKSLSPQELQAFKRAKDALEESLLLKDCKCRSRLFPRTWDLRQLQVRERPVALEAELALTLKVLEATADTDPALGDVLDQPLHTLHHILSQLRACIQPQPTAGPRTRGRLHHWLHRLQEAPKKESPGCLEASVTFNLFRLLTRDLNCVASGDLCV
notes: human IFN-λ3, full-length cDNA in a modified pcDNA3.1 with a TEV site and C-terminal 6xHis tag; also called wild-type hIFN-λ3; source: Expi293-F cells, transfected, from the culture supernatant, purified (Ni-NTA, SEC); not shown: His6, C-terminal, kept
